Key:
[1] = target: monkey CD3 complex on cell surfaces (monkey PBMCs) (monkey); assay: FACS on monkey PBMCs (Cyno-PBMC), given by the filing as binding to monkey CD3; PE goat anti-human IgG, MFI
[2] = target: human CD3ε-his (Cat #:10977-H08s, SinoBiological, China) (human) (UniProt P07766); assay: SPR (BIAcore 8K); human CD3ε-his coupled to CM5 chip, antibody injected
[3] = target: monkey CD20 (HEK293A/monkey CD20 cells) (monkey); assay: FACS on HEK293A/monkey CD20 (CynoCD20) cells, PE anti-human IgG secondary antibody, MFI
[4] = target: human CD3ε-his (Cat #:10977-H08s, SinoBiological, China) (human) (UniProt P07766); assay: ELISA: plate coated with human CD3ε-his (hCD3ε-his), antibody titrated, HRP goat anti-human IgG, OD450

human CD3ε-his (Cat #:10977-H08s, SinoBiological, China) (human), sequence (P07766 23-126 limits assumed): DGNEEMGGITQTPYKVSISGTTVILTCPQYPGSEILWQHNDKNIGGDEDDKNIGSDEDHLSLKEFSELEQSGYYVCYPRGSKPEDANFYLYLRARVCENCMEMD
monkey CD20 (HEK293A/monkey CD20 cells) (monkey), sequence (P11836 other isoform, or with tags, fused parts or gaps): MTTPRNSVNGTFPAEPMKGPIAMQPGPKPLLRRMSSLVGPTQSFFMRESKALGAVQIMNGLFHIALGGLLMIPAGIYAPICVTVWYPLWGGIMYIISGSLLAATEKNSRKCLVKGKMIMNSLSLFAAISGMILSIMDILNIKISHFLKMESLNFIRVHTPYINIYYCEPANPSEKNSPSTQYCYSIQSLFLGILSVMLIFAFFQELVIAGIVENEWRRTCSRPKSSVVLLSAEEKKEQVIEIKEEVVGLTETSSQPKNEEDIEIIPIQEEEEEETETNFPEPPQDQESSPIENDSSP

Work on “CD20-TCB (reference bispecific antibody against CD3 and CD20)” yielded an EC50 (read off the curve) [1] of 0.6 µg/mL, a Kd [2] of 5.6 nM and an EC50 (read off the curve) [3] of 0.06 µg/mL. The EC50 (read off the curve) [4] was 0.1 µg/mL.

Source: patent US20220195043A1
